Experimental data reported in publication PMC11743104, “Potent human antibodies against SpA5 identified by high-throughput single-cell sequencing of phase I clinical volunteers’ B cells” (iScience, 2024).

Legend:
[1] = molecular target: T1, S. aureus protein A in MRSA252 bacterial fluid (Staphylococcus aureus MRSA252 (stand-in …, UniProt P02976, strain)); experiment: affinity purification with mass spectrometry; supernatant of ultrasonically fragmented MRSA252 incubated overnight with Abs-9 (200 uL, 8 mg/mL), bound to Protein A beads 2 h, eluate to mass spectrometry; conditions: one partner purified
T1 construct: staphylococcal protein A as it is present in strain MRSA252; The lysate of MRSA252 can hold only the native protein A, not the recombinant mutant SpA5; also called SpA; source: endogenous, MRSA252 ultrasonically fragmented and centrifuged, supernatant

[2] = molecular target: T2, mutant staphylococcal protein A (SpA5) (Staphylococcus aureus, recombinant …, point mutant); experiment: BLI; Octet RED96, room temperature, PBS with 0.01% Tween 20; Abs-9 (8 ug/mL) loaded on Pro A biosensor; SpA5 in double dilutions 53 uM to 6.63 uM, 600 s association, 600 s dissociation; conditions: both partners purified
T2 construct: staphylococcal protein A, mutant 'pentameric form' (SpA5), component of the recombinant five-component S. aureus vaccine; The residue numbers printed for SpA5 (E790 to N893) come from the docked model; also called antigen SpA5; pentameric form of S. aureus protein A; source: recombinant antigenic protein (vaccine component of rFSAV)

[3] = molecular target: T3, KLH-(N847-S857) (Staphylococcus aureus, protein A …); experiment: ELISA; KLH-(N847-S857) coated at 2 ug/mL; Abs-9 from 2 ug/mL in PBST, diluted in half; 37 C 1 h; goat anti-human IgG Fc-HRP, OD450; SpA5 positive control, KLH negative control; conditions: both partners purified
T3 construct: stretch N847-S857 of SpA5; they were put together from the eleven consecutive residues in the docking list; also called synthetic peptide N847-S857; source: synthetic peptide, coupled to keyhole limpet hemocyanin (KLH)
T3 chain: NEEQRNGFIQS

B1: human antibody Abs-9 (antibody, V domains shown)
VH: QVQLQQWGAGLLKPSETLSLTCAVYGGSFSGYYWSWIRQPPGKGLEWIGEINHSGSTNYNPSLKSRVTISVDTSKNQFSLKLSSVTAADTAVYYCARRSYGVKPFDYWGQGTLVTVSS
VL: SSELTQDPAVSVALGQTVRITCQGDSLRTYYASWYQQKPGQAPALVIYGKNNRPSGIPDRFFGSSSGNTASLTITGAQAEDEADYYCNSRDSSGNHHPVFGGGTKLTVL
notes: germline VH3-48 gene; also called IgG-9; source: 293F cells, transfected (heavy and light chain plasmids, PEI), purified from supernatant on Protein A beads
**Q.** Does B1 bind [1]?
**A.** binds

**Q.** What about the Kd [2] of the same binder?
**A.** 1.96 nM

**Q.** What about the koff [2] of the same binder?
**A.** 5.63e-07 s⁻¹

**Q.** Does B1 bind [3]?
**A.** binds
